Laboratory results: article PMC5268738, “A sequential multi-target Mps1 phosphorylation cascade promotes spindle checkpoint signaling” (eLife, 2017)

T1: C-terminal domain (CTD) of scMad1 (Saccharomyces cerevisiae, UniProt P40957)
T1 sequence (P40957 633-749 limits assumed): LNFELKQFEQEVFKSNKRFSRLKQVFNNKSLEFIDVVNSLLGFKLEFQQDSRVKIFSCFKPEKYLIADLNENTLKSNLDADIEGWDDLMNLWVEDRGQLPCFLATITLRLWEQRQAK

B1: Phosphorylated scBub1449–530: Mps1-phosphorylated scBub1 fragment containing the CM (protein)
chain: SRSPTVTAFSKDAINEVFSMFNQHYSTPGALLDGDDTTTSKFNVFENFTQEFTAKNIEDLTEVKDPKQETVSQQTTSTNETN
modifications: phosphothreonine at 453, phosphothreonine at 455, phosphoserine at 458 (mass spectrometry; co-expressed with scMps1); left off: GST, N-terminal, state not stated
notes: Mps1-phosphorylated scBub1 fragment containing the CM
B2: scBub1_369–608: scBub1 fragment co-expressed with the kinase domain of scMps1 in bacteria (protein)
chain: RKLDVLVERRQDLPSSQPPVVPKSTRIEVFKDDDNPSQSTHHKNTQVQVQTTTSILPLKPVVDGNLAHETPVKPSLTSNASRSPTVTAFSKDAINEVFSMFNQHYSTPGALLDGDDTTTSKFNVFENFTQEFTAKNIEDLTEVKDPKQETVSQQTTSTNETNDRYERLSNSSTRPEKADYMTPIKETTETDVVPIIQTPKEQIRTEDKKSGDNTETQTQLTSTTIQSSPFLTQPEPQAEK
modifications: left off: GST, N-terminal, kept
notes: scBub1 fragment co-expressed with the kinase domain of scMps1 in bacteria

What was measured:
scMad1^E–scMad2 complex [1] = assay: ITC, Mps1-phosphorylated scBub1 fragment with scMad1^E–scMad2 complex; assay type: binding, Saccharomyces cerevisiae; details: 20°C, 25 mM HEPES pH 7.5, 150 mM NaCl, scMad1 proteins 20 µM in cell, scBub1 fragment 300 µM injected, read-out: Kd, dissociation constant (affinity)
Method: (§1) All isothermal titration calorimetry (ITC) assays were performed with a MicroCal Omega ITC200 titration calorimeter (GE Life Sciences) at 20°C. Recombinant scMad1^CTD protein or scMad1–scMad2 complexes were dialyzed into the HEPES Buffer I (25 mM HEPES, pH 7.5, 150 mM NaCl). Recombinant human Mad1^CTD protein was dialyzed into the HEPES Buffer II (25 mM HEPES, pH 7.5, 50 mM NaCl). For each titration, 300 μl of scMad1 proteins (20 µM) or human Mad1 (50 µM) were added to the calorimeter cell. The scBub1 phospho-peptides or purified scMps1-phosphorylated scBub1_449–530 fragment (300 µM) in the HEPES Buffer I or the human Bub1 phospho-peptides (500 µM) in the HEPES Buffer II were injected with an injection syringe in 19 2-μl portions. The raw data were processed and fitted with the NITPIC software package ([Keller et al., 2012]).

[2] = molecular target: T1, C-terminal domain (CTD) of scMad1; assay: ITC, scBub1 fragment or phospho-peptides with scMad1 CTD; assay type: binding; details: 20°C, 25 mM HEPES pH 7.5, 150 mM NaCl, scMad1 20 µM in cell, scBub1 phospho-peptide or fragment 300 µM injected, read-out: Kd, dissociation constant
Method: as §1

scMad1^E–scMad2 complex [3] = assay: in vitro pull-down of scMad1^E–scMad2 by GST-scBub1 fragments; assay type: binding, Saccharomyces cerevisiae; details: scBub1 fragments alone or co-expressed with scMps1 kinase domain
Method: Expression of GST-BubR1^N (residues 1–370), GST-Mad2, GST-scBub1 fragments, GST-Mad1, and GST-scMad1 fragments in BL21(DE3) was induced by 0.1 mM isopropyl β-D-1-thiogalactopyranoside (IPTG) at 16°C overnight, after the OD600 reached 0.8. Mad1 and scMad1 fragments (Mad1^E) containing the Mad2-interacting motif (MIM) were co-expressed with Mad2 and scMad2, respectively. Fragments of scBub1 were co-expressed with His6-scMps1 (the kinase domain; residues 440–720). […] After sonication, lysates were cleared by centrifugation at 4°C. Supernatants were filtered by 0.45 µm filter and incubated with pre-equilibrated Glutathione Sepharose 4B beads (GE Healthcare). Protein-bound beads were washed with 40 volumes of the wash buffer I. The proteins were then eluted with reduced glutathione (Sigma) or cleaved with the PreScission protease. Eluates were dialyzed to the QA buffer (25 mM Tris-HCl, pH 8.0, 20 mM NaCl, 3 mM DTT), loaded onto a Resource Q column (GE Healthcare), and then eluted with the QB buffer (25 mM Tris-HCl, pH 8.0, 1 M NaCl, 3 mM DTT). Peak fractions were pooled and further purified with a Superdex 200 size exclusion column (GE Healthcare). […]
Recombinant bait proteins or bacteria lysates containing bait proteins were incubated with the appropriate affinity beads. […] The bead-bound proteins were analyzed by Coomassie blue staining or Western blotting. […]

Row | Molecule | Kd (scMad1^E–scMad2 complex [1]) | Kd [2] | binding to scMad1^E–scMad2 (in words) (scMad1^E–scMad2 complex [3])
1 | B1 | 2210 nM | 2930 nM | –
2 | B2 | – | – | only the phosphorylated scBub1 bound to the scMad1^E–scMad2 complex
